Reference: the supplement of paper PMC9876800

System: peptide library, one residue held at a place counted from the S/T acceptor
Experiment: relative phosphorylation of the sub-library (ratio to the mean residue at this position); higher = residue favoured
Method in brief: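 Human or orthologue kinase constructs, purified and recombinant, were incubated under kinase-specific conditions in 384-well plates with biotinylated degenerate peptide sub-libraries. Each sub-library fixed one residue at one position around a central Ser/Thr. Incubations lasted 90 min with peptides at 50 μM and 50 μM ATP spiked with γ-32P-ATP, after which spots on streptavidin membranes were phosphorimaged and quantified by densitometry. Relative sub-library phosphorylation is a ratio to the mean residue at that position.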

Chain of STK38L, construct: Full length, human (Q9Y2H1 whole entry, looked up): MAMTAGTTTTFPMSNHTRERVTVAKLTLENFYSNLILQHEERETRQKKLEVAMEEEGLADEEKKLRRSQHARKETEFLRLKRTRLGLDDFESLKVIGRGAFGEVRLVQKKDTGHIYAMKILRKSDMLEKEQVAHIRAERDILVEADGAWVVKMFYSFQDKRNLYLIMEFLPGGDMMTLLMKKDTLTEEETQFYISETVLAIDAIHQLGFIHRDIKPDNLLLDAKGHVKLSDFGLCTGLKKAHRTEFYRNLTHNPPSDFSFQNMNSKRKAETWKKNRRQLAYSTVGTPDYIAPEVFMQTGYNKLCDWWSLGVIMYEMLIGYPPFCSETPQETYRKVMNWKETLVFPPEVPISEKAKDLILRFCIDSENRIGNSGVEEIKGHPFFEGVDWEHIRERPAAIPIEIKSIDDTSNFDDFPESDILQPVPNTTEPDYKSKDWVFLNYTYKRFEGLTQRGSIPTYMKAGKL
Chain of STK38, construct: Full length, human (Q15208 whole entry, looked up): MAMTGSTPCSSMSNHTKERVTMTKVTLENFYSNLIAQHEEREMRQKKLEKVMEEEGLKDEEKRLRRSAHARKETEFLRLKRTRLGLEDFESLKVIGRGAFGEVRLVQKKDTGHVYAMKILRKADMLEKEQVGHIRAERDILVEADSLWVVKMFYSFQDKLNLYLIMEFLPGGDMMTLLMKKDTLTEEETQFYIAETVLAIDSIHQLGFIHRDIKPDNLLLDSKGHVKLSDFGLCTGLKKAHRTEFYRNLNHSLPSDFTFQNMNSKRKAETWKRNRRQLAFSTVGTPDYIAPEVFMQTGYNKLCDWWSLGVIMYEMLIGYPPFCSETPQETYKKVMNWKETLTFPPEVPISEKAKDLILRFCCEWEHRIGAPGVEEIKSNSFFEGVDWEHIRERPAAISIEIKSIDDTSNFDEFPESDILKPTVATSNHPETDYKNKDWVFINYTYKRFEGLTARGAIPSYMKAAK
Chain of STK33, construct: Full length, human (Q9BYT3 whole entry, looked up): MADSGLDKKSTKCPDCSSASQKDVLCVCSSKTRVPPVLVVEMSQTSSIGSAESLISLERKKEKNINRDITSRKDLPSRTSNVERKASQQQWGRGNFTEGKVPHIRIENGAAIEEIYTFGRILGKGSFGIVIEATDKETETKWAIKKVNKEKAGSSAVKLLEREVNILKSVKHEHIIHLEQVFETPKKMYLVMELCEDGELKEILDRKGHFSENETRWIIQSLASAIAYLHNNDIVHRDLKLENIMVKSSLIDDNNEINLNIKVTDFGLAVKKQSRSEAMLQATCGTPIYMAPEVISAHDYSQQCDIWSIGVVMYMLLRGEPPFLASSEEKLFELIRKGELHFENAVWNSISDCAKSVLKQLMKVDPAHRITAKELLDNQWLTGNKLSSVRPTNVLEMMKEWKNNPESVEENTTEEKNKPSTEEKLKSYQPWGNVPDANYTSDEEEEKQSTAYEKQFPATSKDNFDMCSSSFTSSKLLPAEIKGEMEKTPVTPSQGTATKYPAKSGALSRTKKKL

STK33, construct: Full length, human (from UniProt Q9BYT3)
relative phosphorylation
Details	at +1	at +2	at +3	at +4	at -1	at -2	at -3	at -4	at -5
A fixed	0.409	0.63	0.576	0.702	0.899	0.84	0.905	1.03	1.17
D fixed	0.151	0.26	0.433	0.754	0.393	0.433	0.344	0.723	0.731
E fixed	0.158	0.243	0.451	0.951	0.572	0.411	0.355	0.681	0.709
F fixed	1.25	1.85	1.22	0.842	0.653	1.95	1.53	0.855	0.849
G fixed	0.327	0.41	0.743	1.03	0.676	0.987	1.08	1.23	1.43
H fixed	0.745	1.82	1.31	1.12	0.933	1.39	1.07	1.19	1.25
I fixed	1.33	0.956	0.804	0.992	0.574	0.549	0.683	0.661	0.6
K fixed	2.18	0.815	2.01	1.41	2.59	0.826	0.921	1.39	1.72
L fixed	0.893	0.654	0.657	0.801	0.812	0.865	1.62	0.77	0.603
M fixed	1.36	0.871	0.756	0.914	1.14	0.99	1.42	0.836	0.653
N fixed	0.578	0.59	0.655	0.917	0.978	1.32	0.724	1.02	1.11
P fixed	0.217	0.394	0.564	1.38	0.306	0.43	0.915	0.924	1.12
Q fixed	1.23	0.53	0.661	0.994	1.33	0.786	0.836	0.823	0.856
R fixed	3.13	1.16	2.98	1.28	2.9	1.34	1.66	1.42	1.5
V fixed	1.29	0.796	0.721	0.835	0.747	0.568	0.555	0.585	0.613
W fixed	0.768	1.8	1.23	1.21	0.557	1.73	1.23	1.98	1.22
Y fixed	0.988	3.23	1.24	0.882	0.943	1.59	1.16	0.886	0.869
pThr fixed	0.683	0.937	1.23	1.3	0.439	0.702	1.14	1.05	1.24
pTyr fixed	0.677	11.7	1.91	1.8	0.918	0.887	1.02	0.779	1.13

STK38, construct: Full length, human (from UniProt Q15208)
relative phosphorylation
Details	at +1	at +2	at +3	at +4	at -1	at -2	at -3	at -4	at -5
A fixed	0.75	1.35	0.73	0.791	0.743	0.739	0.655	0.978	0.83
D fixed	0.673	1.2	0.723	1.06	0.728	0.6	0.558	0.704	0.609
E fixed	0.644	0.483	0.631	0.807	0.524	0.494	0.476	0.71	0.477
F fixed	0.893	0.79	1.04	0.894	0.545	0.758	0.413	0.596	0.557
G fixed	1.36	1.33	1.23	1.16	1.45	0.936	0.771	1.09	0.88
H fixed	1.04	2.51	1.3	1.03	1.18	1.56	1.35	1.26	3.01
I fixed	1.07	0.495	0.738	0.891	0.325	0.38	0.31	0.575	0.498
K fixed	0.845	0.783	1.12	1.13	1.94	2.24	2.21	2.17	2.44
L fixed	0.932	0.516	1.02	0.897	0.752	0.451	0.377	0.618	0.546
M fixed	1.59	0.575	0.831	0.929	0.751	0.571	0.455	0.745	0.477
N fixed	1.13	1.11	0.954	1.16	1.34	1.23	0.841	0.878	0.795
P fixed	0.335	0.69	0.872	1.28	1.65	0.83	1.18	1.04	0.749
Q fixed	1.15	0.982	0.938	1.12	1.17	0.974	0.886	0.966	0.737
R fixed	1.06	0.87	1.27	1.1	1.61	3.03	4.9	2.46	2.35
V fixed	0.965	1.01	0.729	0.835	0.477	0.421	0.35	0.6	0.542
W fixed	1.4	1.32	1.59	1.05	0.777	1.05	0.637	0.884	0.867
Y fixed	1.18	0.992	1.29	0.865	1.03	0.727	0.636	0.733	0.636
pThr fixed	1.01	0.848	0.709	0.92	0.546	0.635	0.572	0.738	0.545
pTyr fixed	0.731	0.745	0.819	0.623	0.559	0.525	0.613	0.547	0.515

STK38L, construct: Full length, human (from UniProt Q9Y2H1)
relative phosphorylation
Details	at +1	at +2	at +3	at +4	at -1	at -2	at -3	at -4	at -5
A fixed	0.661	1.19	0.645	0.811	0.671	0.847	0.656	1.03	0.951
D fixed	1.16	2.27	1.07	1.33	0.872	0.675	0.648	0.889	0.79
E fixed	1.1	0.721	0.987	1.21	0.636	0.712	0.554	0.812	0.582
F fixed	0.851	0.661	1.04	1.1	0.477	0.747	0.435	0.654	0.538
G fixed	1.38	2.25	1.6	1.15	1.68	1.2	0.833	1.39	0.971
H fixed	0.83	2.05	1.22	1.11	0.979	1.6	1.18	1.26	4.33
I fixed	0.832	0.568	0.826	0.711	0.238	0.265	0.23	0.403	0.345
K fixed	0.847	0.396	0.865	0.812	1.9	2.07	2.1	1.55	1.65
L fixed	0.804	0.421	0.788	0.856	0.619	0.315	0.243	0.481	0.433
M fixed	1.48	0.406	0.843	1.01	0.768	0.487	0.399	0.849	0.508
N fixed	1.61	1.09	1.22	1.24	1.43	1.53	1.03	0.989	0.792
P fixed	0.532	0.81	1.27	1.24	2.64	1.45	1.94	1.89	0.701
Q fixed	1.36	1.1	0.932	1.15	1.37	1.18	0.827	0.982	0.629
R fixed	0.577	0.391	0.59	0.588	1	1.9	4.36	1.63	1.7
V fixed	0.919	0.854	0.668	0.686	0.372	0.358	0.324	0.423	0.457
W fixed	1.09	0.958	1.39	0.955	0.545	1.01	0.598	0.942	0.884
Y fixed	0.961	0.856	1.04	1.05	0.799	0.64	0.657	0.829	0.741
pThr fixed	1.29	0.941	0.91	1.61	0.457	0.842	0.692	0.698	0.46
pTyr fixed	1.26	1.04	0.87	1.05	0.76	0.814	0.914	0.895	0.672
